To fix the notation:
B1: PI4K2A (parent)
chain: FVKDPQGRIIAVFKPKNEEPYGHL
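Further: lentivirally expressed fusions sorted by FACS into six bins by GFP to DsRed ratio, PSI derived from sequencing read proportions per bin multiplied by bin number.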

In this data set the parent is B1. The data set can be described thus: protein stability index of a GFP-peptide fusion (GPS, HEK-293T) (PSI 1-6); higher = more stable. The settings on record: c terminus: a fixed tail appended.
Take FVKDPQGRIIAVFKPKNEEPYAHL [G22A]: the protein stability index turned out to be 1.66.

Consider FVKDPQGRIIAVFKPKNEEPYTHL [G22T], for which the protein stability index worked out at 1.41.

In the case of FVKDPQGRIIAVFKPKNEEPYWHL [G22W], the protein stability index turned out to be 1.72. In the case of FVKDPQGRIIAVFKPKNEEPYYHL [G22Y], the protein stability index was 1.48. On to FVKDPQGRIIAVFKPKNEEPYVHL [G22V], for which the protein stability index came to 1.55. Next, FVKDPQGRIIAVFKPKNEEPYRHL [G22R]: 2.37; FVKDPQGRIIAVFKPKNEEPYPHL [G22P]: 2.63. Next, FVKDPQGRIIAVFKPKNEEPYQHL [G22Q]: 2.09; FVKDPQGRIIAVFKPKNEEPYKHL [G22K]: 2.44; FVKDPQGRIIAVFKPKNEEPYLHL [G22L]: 2.03.

Consider FVKDPQGRIIAVFKPKNEEPYDHL [G22D], for which the protein stability index stood at 1.74. Take FVKDPQGRIIAVFKPKNEEPYCHL [G22C]: the protein stability index was 1.93. The figure for FVKDPQGRIIAVFKPKNEEPYFHL [G22F] is 1.81; for FVKDPQGRIIAVFKPKNEEPYMHL [G22M] it is 2.1; for FVKDPQGRIIAVFKPKNEEPYSHL [G22S] it is 2.65. Next, FVKDPQGRIIAVFKPKNEEPYIHL [G22I]: 1.74; FVKDPQGRIIAVFKPKNEEPYHHL [G22H]: 1.88.

As for FVKDPQGRIIAVFKPKNEEPYEHL [G22E], the protein stability index amounted to 2.02.

For the variant FVKDPQGRIIAVFKPKNEEPYNHL [G22N], the protein stability index amounted to 1.73. Next, FVKDPQGRIIAVFKPKNEEPYGHY [L24Y]: 1.41; FVKDPQGRIIAVFKPKNEEPYGHT [L24T]: 2.22. With FVKDPQGRIIAVFKPKNEEPYGHW [L24W], the protein stability index was 1.74. FVKDPQGRIIAVFKPKNEEPYGHG [L24G]: the protein stability index was found to be 1.48. The figure for FVKDPQGRIIAVFKPKNEEPYGHI [L24I] is 1.92. In the case of FVKDPQGRIIAVFKPKNEEPYGHS [L24S], the protein stability index came out at 2.1. Next, FVKDPQGRIIAVFKPKNEEPYGHC [L24C]: 2.24; FVKDPQGRIIAVFKPKNEEPYGHD [L24D]: 2.03. With FVKDPQGRIIAVFKPKNEEPYGHP [L24P], the protein stability index is 2.33. With FVKDPQGRIIAVFKPKNEEPYGHK [L24K], the protein stability index came to 2.04. FVKDPQGRIIAVFKPKNEEPYGHR [L24R]: the protein stability index worked out at 1.42.

On to FVKDPQGRIIAVFKPKNEEPYGHH [L24H], for which the protein stability index stood at 1.76. Next, FVKDPQGRIIAVFKPKNEEPYGHE [L24E]: 1.04; FVKDPQGRIIAVFKPKNEEPYGHM [L24M]: 1.92; FVKDPQGRIIAVFKPKNEEPYGHF [L24F]: 1.53. The figure for FVKDPQGRIIAVFKPKNEEPYGHA [L24A] is 2.27.

For FVKDPQGRIIAVFKPKNEEPYGHQ [L24Q], the protein stability index came to 2.03. Take FVKDPQGRIIAVFKPKNEEPYGHV [L24V]: the protein stability index is 2.19.

On to FVKDPQGRIIAVFKPKNEEPYGHN [L24N], for which the protein stability index is 1.63. Next, FVKDPQGRIIAVFKPKNREPYGHL [E18R]: 2.1; FVKDPQGRIIAVFKPKNHEPYGHL [E18H]: 1.62; FVKDPQGRIIAVFKPKNDEPYGHL [E18D]: 2.16. In the case of FVKDPQGRIIAVFKPKNKEPYGHL [E18K], the protein stability index was 2.04.

FVKDPQGRIIAVFKPKNNEPYGHL [E18N]: the protein stability index was found to be 1.48. Turning to FVKDPQGRIIAVFKPKNTEPYGHL [E18T], the protein stability index amounted to 1.35. Take FVKDPQGRIIAVFKPKNCEPYGHL [E18C]: the protein stability index was 2.02. The figure for FVKDPQGRIIAVFKPKNYEPYGHL [E18Y] is 2.98; for FVKDPQGRIIAVFKPKNLEPYGHL [E18L] it is 3.88. The figure for FVKDPQGRIIAVFKPKNSEPYGHL [E18S] is 2.2; for FVKDPQGRIIAVFKPKNPEPYGHL [E18P] it is 1.79. Regarding FVKDPQGRIIAVFKPKNAEPYGHL [E18A], the protein stability index is 2.39.

Consider FVKDPQGRIIAVFKPKNVEPYGHL [E18V], for which the protein stability index came out at 2.23.

Regarding FVKDPQGRIIAVFKPKNGEPYGHL [E18G], the protein stability index came out at 3.17.

Regarding FVKDPQGRIIAVFKPKNFEPYGHL [E18F], the protein stability index came to 1.96.

Take FVKDPQGRIIAVFKPKNMEPYGHL [E18M]: the protein stability index is 2.08. As for FVKDPQGRIIAVFKPKNQEPYGHL [E18Q], the protein stability index came out at 1.8. The figure for FVKDPQGRIIAVFKPKNIEPYGHL [E18I] is 2.22. The figure for FVKDPQGRIIAVFKPKNEEDYGHL [P20D] is 2.05. Next, FVKDPQGRIIAVFKPKNEEAYGHL [P20A]: 2.94.

In the case of FVKDPQGRIIAVFKPKNEETYGHL [P20T], the protein stability index is 2.01. Next, FVKDPQGRIIAVFKPKNEEEYGHL [P20E]: 1.75; FVKDPQGRIIAVFKPKNEECYGHL [P20C]: 1.78; FVKDPQGRIIAVFKPKNEEKYGHL [P20K]: 1.2. For FVKDPQGRIIAVFKPKNEEYYGHL [P20Y], the protein stability index was 1.91.

Consider FVKDPQGRIIAVFKPKNEEMYGHL [P20M], for which the protein stability index worked out at 2.65. Next, FVKDPQGRIIAVFKPKNEENYGHL [P20N]: 1.94; FVKDPQGRIIAVFKPKNEEHYGHL [P20H]: 1.74; FVKDPQGRIIAVFKPKNEEVYGHL [P20V]: 1.16. Next, FVKDPQGRIIAVFKPKNEEFYGHL [P20F]: 1.94; FVKDPQGRIIAVFKPKNEEGYGHL [P20G]: 2.05; FVKDPQGRIIAVFKPKNEEIYGHL [P20I]: 1.76.

On to FVKDPQGRIIAVFKPKNEEWYGHL [P20W], for which the protein stability index is 2.05. With FVKDPQGRIIAVFKPKNEELYGHL [P20L], the protein stability index came out at 1.55.

In the case of FVKDPQGRIIAVFKPKNEERYGHL [P20R], the protein stability index stood at 1.7. Take FVKDPQGRIIAVFKPKNEESYGHL [P20S]: the protein stability index is 2. The figure for FVKDPQGRIIAVFKPKNEEQYGHL [P20Q] is 1.7; for FVKDPQGRIIAVFKPKNEEPIGHL [Y21I] it is 2.91.

FVKDPQGRIIAVFKPKNEEPNGHL [Y21N]: the protein stability index came to 1.5.

Turning to FVKDPQGRIIAVFKPKNEEPGGHL [Y21G], the protein stability index turned out to be 1.65. The figure for FVKDPQGRIIAVFKPKNEEPTGHL [Y21T] is 1.74; for FVKDPQGRIIAVFKPKNEEPKGHL [Y21K] it is 2.04; for FVKDPQGRIIAVFKPKNEEPAGHL [Y21A] it is 1.57.

In the case of FVKDPQGRIIAVFKPKNEEPWGHL [Y21W], the protein stability index is 2.26.

Turning to FVKDPQGRIIAVFKPKNEEPVGHL [Y21V], the protein stability index turned out to be 1.65. The figure for FVKDPQGRIIAVFKPKNEEPMGHL [Y21M] is 1.54; for FVKDPQGRIIAVFKPKNEEPFGHL [Y21F] it is 2.21. With FVKDPQGRIIAVFKPKNEEPQGHL [Y21Q], the protein stability index was 2.53. Next, FVKDPQGRIIAVFKPKNEEPRGHL [Y21R]: 2.11; FVKDPQGRIIAVFKPKNEEPLGHL [Y21L]: 2.85.

With FVKDPQGRIIAVFKPKNEEPCGHL [Y21C], the protein stability index is 2. As to FVKDPQGRIIAVFKPKNEEPHGHL [Y21H], the protein stability index was 2.59. For FVKDPQGRIIAVFKPKNEEPSGHL [Y21S], the protein stability index turned out to be 1.72.

With FVKDPQGRIIAVFKPKNEEPDGHL [Y21D], the protein stability index stood at 1.85. The figure for FVKDPQGRIIAVFKPKNEEPPGHL [Y21P] is 2.17; for FVKDPQGRIIAVFKPKNEEPEGHL [Y21E] it is 1.44.
